B1: library; numbered along this chain (parent)
chain: MEVVDPQQLGMFTEGELMSVGMDTFIHRIDSTEVIYQPRRKRAKLIGKYLMGDLLGEGSYGKVKEVLDSETLCRRAVKILKKKKLRRIPNGEANVKKEIQLLRRLRHKNVIQLVDVLYNEEKQKMYMVMEYCVCGMQEMLDSVPEKRFPVCQAHGYFCQLIDGLEYLHSQGIVHKDIKPGNLLLTTGGTLKISDLGVAEALHPFAADDTCRTSQGSPAFQPPEIANGLDTFSGFKVDIWSAGVTLYNITTGLYPFEGDNIYKLFENIGKGSYAIPGDCGPPLSDLLKGMLEYEPAKRFSIRQIRQHSWFRKKHPPAEAPVPIPPSPDTKDRWRSMTVVPYLEDLHGADEDEDLFDIEDDIIYTQDFTVPGQVPEEEASHNGQRRGLPKAVCMNGTEAAQLSTKSRAEGRAPNPARKACSASSKIRRLSACKQQ

Variants of: B1
Test: STK11 functional score (HeLa growth suppression), rescaled enrichment; synonymous median = 1, nonsense median = 0 (normalised score)
Settings: with HeLa; variant type: missense
Outline: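 The functional score takes the post/pre-selection log ratio, corrects it to wild type, rescales it to synonymous and nonsense medians, and merges it over codons and replicate transfections, with error from bootstrapping. Counts came from tiled gDNA amplicons sequenced on NextSeq (~2 million reads per tile). The libraries were POPCode codon-randomised, codon-optimised STK11 integrated by Bxb1 at an AAVS1 landing pad in HeLa, three regions with three transfections each.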

STK11 functional score of substitutions, site by site:
Y340: F 1.04, N 1.03, T 1.58, S 1.3, I 0.334, V 1.6, D 0.511, A 1.56, L 1.59, K 1.6, C 1.63
D343: Q 0.992, L 0.93, H 0.726, R 1.11, A 1.47, T 1.53, N 1.02, M 1.57, Y 1.29, C 1.44, W 1.55, G 1.41, E 1.45, I 1.57, S 1.35, P 1.33, V 1.21, F 1.32
L341: G 1.46, S 0.93, C 1.38, I 1.56, H 0.315, T 1.29, V 1.33, A 1.51, F 0.562, P 1.54, Q 1.59, D 1.6, R 1.21, E 1.55, W 1.25, M 1.63, N 1.52
M335: F 1.35, T 1.46, V 1.42, W 0.367, P 1.5, E 1.33, G 1.55, S 1.53, A 1.51, H -0.482, L 1.03, Y 1.32, K 1.03, D 0.605, I 1.18, R 1.46, C 1.36, Q 1.01
P339: D 1.55, G 0.73, A 1, E 0.55, L 0.979, N 0.366, I 1.52, W 1.6, V 0.729, M 1.62, C 1.59, Q 1.52, Y 1.21, S 1.42, R 1.16
V338: C 0.965, R 0.93, W 0.683, L 1.39, Q 1.54, T 1.6, A 1.56, D 1.39, S 1.59, I 1.47, G 1.18, P 1.54
L344: R 1.46, E 1.28, G 0.8, I 1.13, T 1.56, A 1.51, V 1.42, Y 0.904, D 1.46, S 1.43, C 1.12, W 1.54, K 1.59, F 0.831, H 1.14
R331: C 1.38, A 0.000385, L 1.2, V 1.13, P 1.54, S 1.32, D 1.24, I 1.16, G 1.41, Y 1.35, E 1.12, N 1.35, H -0.127, W 1.49
E342: F 1.14, I 1.42, W 1.19, D 0.774, L 1.26, P 1.53, Y 1.38, T 1.58, S 1.39, R 1.54, C 1.21, A 1.11, G 1, Q 1.23, N 1.4, K 1.61, M 1.46, V 1.46
D330: S 1.47, A 1.18, Q 0.163, L 1.59, N 1.44, M 1.58, C 1.33, I 1.33, H 0.985, E 0.786, R 1.47, T 1.59, V 1.46, G 1.23
W332: E 1.61, L 1.55, P 1.63, C 0.361, A 1.56, V 1.59, Q 1.55, M 1.42, R 1.55, S 1.21, G 1.55
S325: T 1.17, L 1.57, P 1.51, R 1.58, W 0.629, Y 0.029, E 1.24, N 1.47, M 0.0951, G 0.96, I 1.56, H 1.54, Q 1.42, V 0.786
K329: I 1.25, P 1.47, N 1.36, M 1.55, E 1.32, W 0.742, Q 1.1, A 1.58, Y 1.15, L 1.42, G 1.35, R 0.535, S 0.673, D 1.56, F 1.18
A347: S 1.42, H 0.00438, M 1.54, G 1.12, I 1.52, P 1.21, F 1.37, L 1.46, R 1.54, T 1.33
T336: G 1.15, I 1.35, C 1.27, W 1.64, N 0.774, E 1.61, A 1.52, H 1.59, S 1, K 1.54, M 0.732, P 1.18, R 1.54, V 1.49, L 1.39, Y 1.17, D 0.148
T328: W 1.59, R 1.5, L 1.03, E 1.5, A 1.62, P 1.57, H 1.52, N 0.554, I 1.29, V 1.36, S 1.39, D 1.5
D327: N 1.3, I 1.6, G 0.999, C 1.27, W 1.57, A 1.28, T 1.6, S 1.58, R 1.61, Y 1.36, P 1.59, H 1.21, V 1.31, L 1.55
R333: P 1.64, D 1.62, F 0.85, G 1.47, Y 1.55, I 1.49, K 1.61, L 1.32, S 1.55, V 1.15, H 1.05, A 1.28
V337: W 0.54, A 1.24, N 1.54, L 0.924, F 0.545, P 1.58, T 1.61, G 1.13, S 0.723, R 0.662, Y 0.9, K 1.53, I 1.48, D 1.2, C 1.15
H345: R 1.58, L 1.2, Y 1.12, F 1.41, M 1.54, A 1.56, C 1.2, G 1.49, V 1.22, P 1.29, D 1.27, S 1.18, I 1.44, T 1.57, W 1.56
S334: T 1.18, F 1.1, G 1.35, A 0.943, V 1.31, I 0.935, P 1.43, W 0.649, H 1.05, E 1.53, R 0.671, C 0.325, Q 1.53, L 1.24, M 1.05, N 1.58, Y 1.55, D 1.45
P326: V 0.813, C 1.34, L 1.34, M 1.45, R 1.53, H 0.87, S 1.36, A 0.8, G 1.52, Y 0.263, E 1.57
G346: R 1.56, H 1.6, P 1.61, Y 1.57, D 0.435, V 0.838, A 1.57, S 1.48, M 1.58, E 1.35, N 1.6, L 1.38, K 1.61, C 1.22, T 1.62, F 1.29, I 1.18, Q 1.61
